From patent publication US20200095336A1

B1: human-derived molecularly modified insecticidal protein CCL-CCL_scFv (scFv)
scFv: MATDIQMTQSPSSLSASVGDRVTITCRASQSISSYLNWYQQKPGKAPKLLIYAASRLQSGVPSRFSGSGSGTDFTLTISSLQPEDFATYYCQQTSHPPLTFGQGTKVEIKRSSGGGGSGGGGSGGGGSTDIQMTQSPSSLSASVGDRVTITCRASQSISSYLNWYQQKPGKAPKLLIYAASRLQSGVPSRFSGSGSGTDFTLTISSLQPEDFATYYCQQTSHPPLTFGQGTKVEIKR

What was measured:
[1] = target: midgut brush-border membrane vesicle protein BBMV of Plutella xylostella; test: BLI (Octet), BBMV coated on APS biosensor, analyte at 4, 2, 1 and 0.5 µM
[2] = target: midgut brush-border membrane vesicle protein BBMV of Plutella xylostella; test: competitive ELISA on coated BBMV; Cry1Ab varied against CCL-CCL_scFv (competitor, detected by its His tag)
[3] = target: midgut brush-border membrane vesicle protein BBMV of Plutella xylostella; test: competitive ELISA on coated BBMV; Cry1Ac varied against CCL-CCL_scFv (competitor, detected by its His tag)
[4] = target: midgut brush-border membrane vesicle protein BBMV of Plutella xylostella; test: ELISA on coated BBMV, anti-His-tag HRP

| Molecule | Kd [1] [nM] | IC50 [2] [µg/mL] | IC50 [3] [µg/mL] | inhibition rate [3] [%] | OD450 [4] [OD450] |
| --- | --- | --- | --- | --- | --- |
| Bt toxin Cry1Ab (ligand) | 127 | 3.02 |  |  |  |
| Bt toxin Cry1Ac (ligand) |  |  | 1.7 | 90 |  |
| B1 | 41.6 |  |  |  | > 3 |
